# In the Human Domainome abundance scans (Beltran et al. 2025):
# ± gives the uncertainty stated by the source.
# B1: DnaJ homolog subfamily C member 5, residues 16 to 77; numbered along this chain, Q9H3Z4 (parent)
# chain: LYHVLGLDKNATSDDIKKSYRKLALKYHPDKNPDNPEAADKFKEINNAHAILTDATKRNIYD
# Variants of: B1
# Experiment: abundance fitness (aPCA) (normalised: wild type 0, dead -1); higher = more abundant; growth selection in yeast, the domain comes from the species named
# Settings: Homo sapiens
row,Variant,abundance fitness
1,LYHVLGLDKNATSDDIKKSYRKLALKYHPDKNPDNPEAADKFKEINNAHAILTDATKRNIRD,0.03 ± 0.076
2,LYHVLGLDKNATSDDIKKSYRKLALKYHPDKNPDNPEAADKFKEINNAHAILTDATKRNIVD,0.002 ± 0.083
3,LYHVLGLDKNATSDDIKKSYRKLALKYHPDKNPDNPEAADKFKEINNAHAILTDATKRNIWD,-0.511 ± 0.12
4,LYHVLGLDKNATSDDIKKSYRKLALKYHPDKNPDNPEAADKFKEINNAHAILTDATKRNIQD,0.104 ± 0.14
5,LYHVLGLDKNATSDDIKKSYRKLALKYHPDKNPDNPEAADKFKEINNAHAILTDATKRNISD,0.182 ± 0.067
6,LYHVLGLDKNATSDDIKKSYRKLALKYHPDKNPDNPEAADKFKEINNAHAILTDATKRNIND,-0.199 ± 0.16
7,LYHVLGLDKNATSDDIKKSYRKLALKYHPDKNPDNPEAADKFKEINNAHAILTDATKRNITD,0.073 ± 0.11
8,LYHVLGLDKNATSDDIKKSYRKLALKYHPDKNPDNPEAADKFKEINNAHAILTDATKRNIPD,0.244 ± 0.12
9,LYHVLGLDKNATSDDIKKSYRKLALKYHPDKNPDNPEAADKFKEINNAHAILTDATKRNIYG,-0.16 ± 0.083
10,LYHVLGLDKNATSDDIKKSYRKLALKYHPDKNPDNPEAADKFKEINNAHAILTDATKRNIYL,-0.472 ± 0.28
11,LYHVLGLDKNATSDDIKKSYRKLALKYHPDKNPDNPEAADKFKEINNAHAILTDATKRNIYS,-0.421 ± 0.13
12,LYHVLGLDKNATSDDIKKSYRKLALKYHPDKNPDNPEAADKFKEINNAHAILTDATKRNIYT,-0.894 ± 0.49
13,LYHVLGLDKNATSDDIKKSYRKLALKYHPDKNPDNPEAADKFKEINNAHAILTDATKRNIYK,-0.661 ± 0.27
14,LYHVLGLDKNATSDDIKKSYRKLALKYHPDKNPDNPEAADKFKEINNAHAILTDATKRNIYA,-0.188 ± 0.12
15,LYHVLGLDKNATSDDIKKSYRKLALKYHPDKNPDNPEAADKFKEINNAHAILTDATKRNIYQ,-0.58 ± 0.38
16,LYHVLGLDKNATSDDIKKSYRKLALKYHPDKNPDNPEAADKFKEINNAHAILTDATKRNIYW,-0.546 ± 0.27
17,LYHVLGLDKNATSDDIKKSYRKLALKYHPDKNPDNPEAADKFKEINNAHAILTDATKRNIYP,-0.349 ± 0.17
18,LYHVLGLDKNATSDDIKKSYRKLALKYHPDKNPDNPEAADKFKEINNAHAILTDATKRNIYV,-0.662 ± 0.14
19,LYHVLGLDKNATSDDIKKSYRKLALKYHPDKNPDNPEAADKFKEINNAHAILTDATKRNIYR,-0.428 ± 0.4
20,LYHVLGLDKNATSDDIKKSYRKLALKYHPDKNPDNPEAADKFKEINNAHAILTDATKRNIYY,-0.849 ± 0.29
21,LYHVLGLDKNATSDDIKKSYRKLALKYHPDKNPDNPEAADKFKEINNAHAILTDATKRNIYN,-0.465 ± 0.12
22,LYHVLGLDKNATSDDIKKSYRKLALKYHPDKNPDNPEAADKFKEINNAHAILTDATKRNIYM,-0.743 ± 0.15
